Test results from publication PMC5500832 (Chemical Science, 2015).

Format: physicochemical
Conditions: all pH values (3, 5, 7 and 9); 20 °C; over eight days; HPLC-MSMS; detection limit = 0.05%

## FFRKSIINFEKL [compound 3]
  Formation of α-GalCer (background hydrolysis, linker collapse): No formation of α-GalCer was detected
